Results reported in IntAct's records for PubMed 20133777.

B1: Receptor-type tyrosine-protein phosphatase T (Homo sapiens), O14522-1 (parent)
chain: MASLAALALSLLLRLQLPPLPGARAQSAAGGCSFDEHYSNCGYSVALGTNGFTWEQINTWEKPMLDQAVPTGSFMMVNSSGRASGQKAHLLLPTLKENDTHCIDFHYYFSSRDRSSPGALNVYVKVNGGPQGNPVWNVSGVVTEGWVKAELAISTFWPHFYQVIFESVSLKGHPGYIAVDEVRVLAHPCRKAPHFLRLQNVEVNVGQNATFQCIAGGKWSQHDKLWLQQWNGRDTALMVTRVVNHRRFSATVSVADTAQRSVSKYRCVIRSDGGSGVSNYAELIVKEPPTPIAPPELLAVGATYLWIKPNANSIIGDGPIILKEVEYRTTTGTWAETHIVDSPNYKLWHLDPDVEYEIRVLLTRPGEGGTGPPGPPLTTRTKCADPVHGPQNVEIVDIRARQLTLQWEPFGYAVTRCHSYNLTVQYQYVFNQQQYEAEEVIQTSSHYTLRGLRPFMTIRLRLLLSNPEGRMESEELVVQTEEDVPGAVPLESIQGGPFEEKIYIQWKPPNETNGVITLYEINYKAVGSLDPSADLSSQRGKVFKLRNETHHLFVGLYPGTTYSFTIKASTAKGFGPPVTTRIATKISAPSMPEYDTDTPLNETDTTITVMLKPAQSRGAPVSVYQLVVKEERLQKSRRAADIIECFSVPVSYRNASSLDSLHYFAAELKPANLPVTQPFTVGDNKTYNGYWNPPLSPLKSYSIYFQALSKANGETKINCVRLATKAPMGSAQVTPGTPLCLLTTGASTQNSNTVEPEKQVDNTVKMAGVIAGLLMFIIILLGVMLTIKRRRNAYSYSYYLSQRKLAKKQKETQSGAQREMGPVASADKPTTKLSASRNDEGFSSSSQDVNGFTDGSRGELSQPTLTIQTHPYRTCDPVEMSYPRDQFQPAIRVADLLQHITQMKRGQGYGFKEEYEALPEGQTASWDTAKEDENRNKNRYGNIISYDHSRVRLLVLDGDPHSDYINANYIDGYHRPRHYIATQGPMQETVKDFWRMIWQENSASIVMVTNLVEVGRVKCVRYWPDDTEVYGDIKVTLIETEPLAEYVIRTFTVQKKGYHEIRELRLFHFTSWPDHGVPCYATGLLGFVRQVKFLNPPEAGPIVVHCSAGAGRTGCFIAIDTMLDMAENEGVVDIFNCVRELRAQRVNLVQTEEQYVFVHDAILEACLCGNTAIPVCEFRSLYYNISRLDPQTNSSQIKDEFQTLNIVTPRVRPEDCSIGLLPRNHDKNRSMDVLPLDRCLPFLISVDGESSNYINAALMDSHKQPAAFVVTQHPLPNTVADFWRLVFDYNCSSVVMLNEMDTAQFCMQYWPEKTSGCYGPIQVEFVSADIDEDIIHRIFRICNMARPQDGYRIVQHLQYIGWPAYRDTPPSKRSLLKVVRRLEKWQEQYDGREGRTVVHCLNGGGRSGTFCAICSVCEMIQQQNIIDVFHIVKTLRNNKSNMVETLEQYKFVYEVALEYLSSF

Variants of: B1
Settings: with paxi_human PXN

Variant | effect of a mutation on the interaction
D1074A | increasing interaction
D1074A;C1106S | increasing interaction
